Experimental data published in patent publication US10400249B2, “HPPD variants and methods of use” (priority 2014, dated 2019).

How the values were obtained:
[1] = system: Pseudomonas fluorescens HPPD protein; experiment: HGD assay: HPPD activity coupled to HGA dioxygenase, pI50 and type of inhibition (time-course); type: biochemical; details: for pI50-values of Cmpd. 2: assay not given, follows the time-course analysis (HGD assay)
Procedure: (§1) HPPD proteins were produced and purified as described in WO2011/076882. The activity of HPPD proteins in absence or presence of HPPD inhibitors was determined using either the so called OD assay or the HGD assay.
(§2) • a) The OD assay: The HPPD activity was determined colourimetrically by measuring the amount of HPP remaining in the assay mixture at the end of the incubation period after derivatisation of HPP with 2,4-dinitrophenylhydrazine (DNP) to form an amber-brown colored 2,4-dinitrophenylhydrazone under alkaline conditions. The assay was carried out at room temperature in Greiner F-bottom 96 well microplates. The assay mixture contained 50 mM Tris-HCl pH 7.8, 0.5 mM HPP, 10 mM ascorbate, 650 units of catalase and appropriate amounts of purified HPPD enzyme in a total assay volume of 100 μl. The reaction was started by the addition of enzyme. After an incubation time of 24 minutes, the reaction was stopped by the addition of 50 μl of a solution of 0.04% DNP dissolved in 3.8 N HCl. After a further 15-minute incubation period 100 μl of a 5 N KOH solution was added to the reaction mixture and the amount of unconsumed HPP was measured photometrically at 405 nm. Enzyme activity was calculated as the difference in E405 between assays lacking enzyme (negative control) and the enzyme containing assays (ΔE405=E405(negative control)−E405). Enzyme activity (nmol substrate consumed per min) was calculated from a calibration curve generated from HPP. pI50-values (the negative log value of the concentration of inhibitor necessary to inhibit 50% of the enzyme activity in molar concentration were determined from dose-response plots of HPPD activity versus inhibitor concentration tested (5.0×10^−6, 1.0×10^−5, 2.5×10^−5, 4.0×10^−5, 7.0×10^−5, 1.0×10^−4, 2.0×10^−4 and 5.0×10^−4M) using the 4 Parameter Logistic Model or Sigmoidal Dose-Response Model of the ID Business Solutions Ltd. XLfit software suite. The result “>5.6” means that the inhibition at the lowest inhibitor concentration tested was higher than 85% and the pI50-value could therefore not be precisely calculated within in the range of concentration of inhibitor tested. The result “<2.5” means that the inhibition at the highest inhibitor concentration tested was lower than 25% and the pI50-value could therefore not be precisely calculated within in the range of concentration of inhibitor tested. “n.d.” means not determined. • b) The HGD assay: With the HGD assay HPPD activity was measured at room temperature by adding appropriate amounts of HPPD to a solution of 200 mM Tris-HCl pH 7.6, 10 mM ascorbate, 20 μM FeSO4, 650 units of catalase, 8 μg HGA dioxygenase (HGA: homogentisate) and 600 μM HPP in a total volume of 1 ml. Initial reaction rates in the absence or presence of inhibitors were determined from the increase in absorbance at 318 nm due to the formation of maleylacetoacetate (ε318=11,900 M−1 cm-1). pI50-values (the negative log value of the concentration of inhibitor necessary to inhibit 50% of the enzyme activity in molar concentration were determined from dose-response plots of HPPD activity versus inhibitor concentration tested using the 4 Parameter Logistic Model or Sigmoidal Dose-Response Model of the ID Business Solutions Ltd. XLfit software suite. Due to the UV absorption of the HPPD inhibitors tested, inhibitor concentrations >100 μM could not be tested. The result “<4” means that the inhibition at 100 μM inhibitor concentration was lower than 25% and the pI50-value could therefore not be precisely calculated within in the range of concentration of inhibitor tested. “n.d.” means not determined. The HGD assay allowed to continuously follow HPPD-catalyzed HGA formation over time was therefore used to determine the inhibition type of the HPPD inhibitors tested. […] When in the presence of an inhibitor the HPPD activity was inhibited but the inhibition was found not to […] in a time-dependent manner, the inhibitor was called reversible (abbreviation “rev”). […]

[2] = system: Pseudomonas fluorescens HPPD protein; experiment: OD assay: HPPD activity and pI50 from HPP remaining after derivatisation with DNP; type: biochemical; details: for Activity DeltaE/24 min μg Protein: HPPD enzyme activity of the clone; for tolerance (pI50) Cmpd. 2: inhibitor Cmpd. 2; for tolerance (pI50) DKN: inhibitor diketonitrile (DKN), negative log of molar concentration; for tolerance (pI50) MST: inhibitor mesotrione (MST); for tolerance (pI50) TBT: inhibitor tembotrione (TBT)
Procedure: as §1, §2

Molecule | mechanism of inhibition by Cmpd. 2, time-course of inhibition [1] | tolerance (pI50) Cmpd. 2 ([1]; inhibitor Cmpd. 2, HGD assay) | Activity DeltaE/24 min μg Protein [2] [DeltaE/24 min μg Protein] | tolerance (pI50) Cmpd. 2 [2] | tolerance (pI50) DKN [2] | tolerance (pI50) MST [2] | tolerance (pI50) TBT [2] | pI50-values of Cmpd. 2 [1]
K306: PfHPPD variant P215L, Q226H, E335P, G336F, A340E (protein, HPPD variant - K306, PfHPPD variant P215L, Q226H, E335P, G336F, A340E) MADLYENPMGLMGFEFIEFASPTPGTLEPIFEIMGFTKVATHRSKNVHLYRQGEINLILNNEPNSIASYFAAEHGPSVCGMAFRVKDSQKAYNRALELGAQPIHIDTGPMELNLPAIKGIGGAPLYLIDRFGEGSSIYDIDFVYLEGVERNPVGAGLKVIDHLTHNVYRGRMVYWANFYEKLFNFREARYFDIKGEYTGLTSKAMSAPDGMIRILLNEESSKGAGHIEEFLMQFNGEGIQHVAFLTDDLVKTWDALKKIGMRFMTAPPDTYYEMLEGRLPDHGEPVDQLQARGILLDGSSVEGDKRLLLQIFSETLMGPVFFEFIQRKGDDGFGPFNFKELFESIERDQVRRGVLTAD | fully reversible inhibitor | 4.9 | 0.01 | 5.1 | <2.5 | 3.7 | 4.8 | 
K303: PfHPPD variant L200I, P215L, E335P, G336F, A340E (protein, HPPD variant - K303, PfHPPD variant L200I, P215L, E335P, G336F, A340E) MADLYENPMGLMGFEFIEFASPTPGTLEPIFEIMGFTKVATHRSKNVHLYRQGEINLILNNEPNSIASYFAAEHGPSVCGMAFRVKDSQKAYNRALELGAQPIHIDTGPMELNLPAIKGIGGAPLYLIDRFGEGSSIYDIDFVYLEGVERNPVGAGLKVIDHLTHNVYRGRMVYWANFYEKLFNFREARYFDIKGEYTGITSKAMSAPDGMIRILLNEESSKGAGQIEEFLMQFNGEGIQHVAFLTDDLVKTWDALKKIGMRFMTAPPDTYYEMLEGRLPDHGEPVDQLQARGILLDGSSVEGDKRLLLQIFSETLMGPVFFEFIQRKGDDGFGPFNFKELFESIERDQVRRGVLTAD | fully reversible inhibitor |  | 0.008 | 4.6 |  | 3.2 | 4.2 | 5.0
K357: PfHPPD variant A188G, R189C, E335P, G336F, A340E (protein, HPPD variant - K357, PfHPPD variant A188G, R189C, E335P, G336F, A340E) MADLYENPMGLMGFEFIEFASPTPGTLEPIFEIMGFTKVATHRSKNVHLYRQGEINLILNNEPNSIASYFAAEHGPSVCGMAFRVKDSQKAYNRALELGAQPIHIDTGPMELNLPAIKGIGGAPLYLIDRFGEGSSIYDIDFVYLEGVERNPVGAGLKVIDHLTHNVYRGRMVYWANFYEKLFNFREGCYFDIKGEYTGLTSKAMSAPDGMIRIPLNEESSKGAGQIEEFLMQFNGEGIQHVAFLTDDLVKTWDALKKIGMRFMTAPPDTYYEMLEGRLPDHGEPVDQLQARGILLDGSSVEGDKRLLLQIFSETLMGPVFFEFIQRKGDDGFGPFNFKELFESIERDQVRRGVLTAD | fully reversible inhibitor |  | 0.47 | 5.4 | 3.5 | 4.1 | 5.3 | 5.1
K325: PfHPPD variant A188G, R189C, P215N, E335P, G336F, A340E (protein, HPPD variant - K325, PfHPPD variant A188G, R189C, P215N, E335P, G336F, A340E) MADLYENPMGLMGFEFIEFASPTPGTLEPIFEIMGFTKVATHRSKNVHLYRQGEINLILNNEPNSIASYFAAEHGPSVCGMAFRVKDSQKAYNRALELGAQPIHIDTGPMELNLPAIKGIGGAPLYLIDRFGEGSSIYDIDFVYLEGVERNPVGAGLKVIDHLTHNVYRGRMVYWANFYEKLFNFREGCYFDIKGEYTGLTSKAMSAPDGMIRINLNEESSKGAGQIEEFLMQFNGEGIQHVAFLTDDLVKTWDALKKIGMRFMTAPPDTYYEMLEGRLPDHGEPVDQLQARGILLDGSSVEGDKRLLLQIFSETLMGPVFFEFIQRKGDDGFGPFNFKELFESIERDQVRRGVLTAD | fully reversible inhibitor |  | 0.41 | 5.6 | <2.5 | 3.6 | 4.6 | 5.5
K304: PfHPPD variant L200M, P215L, E335P, G336F, A340E (protein, HPPD variant - K304, PfHPPD variant L200M, P215L, E335P, G336F, A340E) MADLYENPMGLMGFEFIEFASPTPGTLEPIFEIMGFTKVATHRSKNVHLYRQGEINLILNNEPNSIASYFAAEHGPSVCGMAFRVKDSQKAYNRALELGAQPIHIDTGPMELNLPAIKGIGGAPLYLIDRFGEGSSIYDIDFVYLEGVERNPVGAGLKVIDHLTHNVYRGRMVYWANFYEKLFNFREARYFDIKGEYTGMTSKAMSAPDGMIRILLNEESSKGAGQIEEFLMQFNGEGIQHVAFLTDDLVKTWDALKKIGMRFMTAPPDTYYEMLEGRLPDHGEPVDQLQARGILLDGSSVEGDKRLLLQIFSETLMGPVFFEFIQRKGDDGFGPFNFKELFESIERDQVRRGVLTAD | fully reversible inhibitor |  | 0.011 | 4.6 |  | 3.2 | 4.2 | 4.7
K250: PfHPPD variant A188G, R189C, P215L, E335P, G336F, A340E (protein, HPPD variant - K250, PfHPPD variant A188G, R189C, P215L, E335P, G336F, A340E) MADLYENPMGLMGFEFIEFASPTPGTLEPIFEIMGFTKVATHRSKNVHLYRQGEINLILNNEPNSIASYFAAEHGPSVCGMAFRVKDSQKAYNRALELGAQPIHIDTGPMELNLPAIKGIGGAPLYLIDRFGEGSSIYDIDFVYLEGVERNPVGAGLKVIDHLTHNVYRGRMVYWANFYEKLFNFREGCYFDIKGEYTGLTSKAMSAPDGMIRILLNEESSKGAGQIEEFLMQFNGEGIQHVAFLTDDLVKTWDALKKIGMRFMTAPPDTYYEMLEGRLPDHGEPVDQLQARGILLDGSSVEGDKRLLLQIFSETLMGPVFFEFIQRKGDDGFGPFNFKELFESIERDQVRRGVLTAD | fully reversible inhibitor |  | 0.07 | 4.6 | <2.5 | 3.0 | 3.8 | < 4
K363: PfHPPD variant Q226H, E335P, G336F, A340E (protein, HPPD variant - K363, PfHPPD variant Q226H, E335P, G336F, A340E) MADLYENPMGLMGFEFIEFASPTPGTLEPIFEIMGFTKVATHRSKNVHLYRQGEINLILNNEPNSIASYFAAEHGPSVCGMAFRVKDSQKAYNRALELGAQPIHIDTGPMELNLPAIKGIGGAPLYLIDRFGEGSSIYDIDFVYLEGVERNPVGAGLKVIDHLTHNVYRGRMVYWANFYEKLFNFREARYFDIKGEYTGLTSKAMSAPDGMIRIPLNEESSKGAGHIEEFLMQFNGEGIQHVAFLTDDLVKTWDALKKIGMRFMTAPPDTYYEMLEGRLPDHGEPVDQLQARGILLDGSSVEGDKRLLLQIFSETLMGPVFFEFIQRKGDDGFGPFNFKELFESIERDQVRRGVLTAD | fully reversible inhibitor |  | 0.20 | 5.4 | 3.8 | 4.3 | 5.5 | 
